Experimental data reported in paper PMC6491428.

Columns and labels:
[1] = tested on: TH1N1 (influenza A H1N1 target protein; protein identity not stated in the material) (Influenza A virus H1N1 (strain not stated)); test: electrochemical DPV (Apta-DEPSOR)
[2] = tested on: TH1N1 (influenza A H1N1 target protein; protein identity not stated in the material) (Influenza A virus H1N1 (strain not stated)); test: SPR
[3] = tested on: TH3N2 (influenza A H3N2 target protein; protein identity not stated in the material) (Influenza A virus H3N2 (strain not stated)); test: electrochemical DPV (Apta-DEPSOR)
[4] = tested on: TH3N2 (influenza A H3N2 target protein; protein identity not stated in the material) (Influenza A virus H3N2 (strain not stated)); test: SPR

Sequence: AGCAGCACAGAGGTCAGATGAGGTGATGAGATTTGTACCTCTCGCGGCACCCTATCGCTGCTACCGTGAA [Apt02>TH1N1]
- binding signal [1]: 2.26 µA (Ipc)
- Kd [2]: 57 nM

Sequence: AGCAGCACAGAGGTCAGATGCTAGCCGTGAGCGTGGTGAGCTCGGTTGACCCTATCGCTGCTACCGTGAA [Apt01>TH3N2]
- binding signal (fold lower signal than with TH3N2) [1]: 9
- binding signal [3]: 1.73 µA (Ipc)
- Kd [4]: 0.14 nM

Sequence: AGCAGCACAGAGGTCAGATGGCGCGGGCGGTGCGTCGGTGTCCCGCTGGCCTATCGCTGCTACCGTGAA [Apt03>TH3N2]
- binding signal [3]: 1.11 µA (Ipc)
- Kd [4]: 0.6 nM

Sequence: AGCAGCACAGAGGTCAGATGTAGGTCGTACTCTGGCGGCCTGTTTGGCCCTATCGCTGCTACCGTGAA [Apt03>TH1N1]
- binding signal [1]: 3.37 µA (Ipc)
- binding signal (fold lower signal than with TH1N1) [3]: 5
- Kd [2]: 0.082 nM

Sequence: AGCAGCACAGAGGTCAGATGTCTGCAGCGTGCAGGGCTGTGTGCTTACCCCCTATCGCTGCTACCGTGAA [Apt04>TH3N2]
- binding signal [3]: 1.61 µA (Ipc)
- Kd [4]: 0.088 nM

Sequence: AGCAGCACAGAGGTCAGATGTGTGCGTGCTTGGGGTATAGTCGGGTCGGCCTATCGCTGCTACCGTGAA [Apt04>TH1N1]
- binding signal [1]: 1.23 µA (Ipc)
- Kd [2]: 1.6 nM

Sequence: AGCAGCACAGAGGTCAGATGGTGGTTGTTTTGGGCGAAGTGGCCATGGTCCCTATCGCTGCTACCGTGAA [Apt02>TH3N2]
- binding signal [3]: 1.16 µA (Ipc)
- Kd [4]: 1.7 nM

Sequence: AGCAGCACAGAGGTCAGATGATTGGATCGTGACGGTTGTTGGGGCTCCGCCTATCGCTGCTACCGTGAA [Apt01>TH1N1]
- binding signal [1]: 0.85 µA (Ipc)
- Kd [2]: 35000 nM
